# Test results as given in patent US20260116958A1 (University of California, published 2026).
# Positions count from the first letter of the chain named.
# T1: active BoNT/G holotoxin (Clostridium botulinum, UniProt Q60393 2-1297)
# T1 sequence: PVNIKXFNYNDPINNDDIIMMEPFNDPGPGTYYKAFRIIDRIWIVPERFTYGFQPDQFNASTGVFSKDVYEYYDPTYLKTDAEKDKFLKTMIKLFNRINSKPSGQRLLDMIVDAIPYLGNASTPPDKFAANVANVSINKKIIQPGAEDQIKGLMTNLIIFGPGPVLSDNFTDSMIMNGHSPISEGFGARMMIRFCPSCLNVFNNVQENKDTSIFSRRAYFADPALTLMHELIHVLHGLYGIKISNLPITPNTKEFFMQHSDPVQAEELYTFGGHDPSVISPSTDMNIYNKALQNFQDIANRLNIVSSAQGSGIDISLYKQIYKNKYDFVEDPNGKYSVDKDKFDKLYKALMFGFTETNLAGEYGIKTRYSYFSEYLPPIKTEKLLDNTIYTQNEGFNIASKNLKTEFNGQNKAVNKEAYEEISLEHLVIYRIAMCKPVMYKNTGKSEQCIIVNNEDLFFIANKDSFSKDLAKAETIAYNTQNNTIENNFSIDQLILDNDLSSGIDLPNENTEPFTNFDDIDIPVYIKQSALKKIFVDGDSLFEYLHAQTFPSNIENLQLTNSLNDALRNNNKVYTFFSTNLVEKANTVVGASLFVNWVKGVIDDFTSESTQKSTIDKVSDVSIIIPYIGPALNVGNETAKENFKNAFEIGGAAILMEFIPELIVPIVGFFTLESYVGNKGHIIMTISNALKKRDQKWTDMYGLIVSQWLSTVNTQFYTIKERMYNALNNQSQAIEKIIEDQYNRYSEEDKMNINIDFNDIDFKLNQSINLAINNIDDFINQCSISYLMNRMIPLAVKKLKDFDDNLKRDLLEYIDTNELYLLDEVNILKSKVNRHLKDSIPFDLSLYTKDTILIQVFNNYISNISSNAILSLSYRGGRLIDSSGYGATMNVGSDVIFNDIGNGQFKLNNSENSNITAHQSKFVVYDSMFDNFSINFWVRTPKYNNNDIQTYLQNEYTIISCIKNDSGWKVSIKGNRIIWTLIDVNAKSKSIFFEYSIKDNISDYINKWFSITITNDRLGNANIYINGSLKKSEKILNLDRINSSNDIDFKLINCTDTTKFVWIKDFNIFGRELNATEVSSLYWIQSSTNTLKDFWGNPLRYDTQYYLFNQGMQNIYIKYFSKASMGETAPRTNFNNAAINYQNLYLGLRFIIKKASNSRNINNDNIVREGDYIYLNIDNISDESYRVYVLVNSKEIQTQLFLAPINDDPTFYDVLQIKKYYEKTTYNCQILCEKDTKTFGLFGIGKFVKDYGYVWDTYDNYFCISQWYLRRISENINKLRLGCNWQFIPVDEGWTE
# T2: inactive BoNT/G (BoNT/Gi) (Clostridium botulinum, UniProt Q60393 1-1297)
# T2 sequence: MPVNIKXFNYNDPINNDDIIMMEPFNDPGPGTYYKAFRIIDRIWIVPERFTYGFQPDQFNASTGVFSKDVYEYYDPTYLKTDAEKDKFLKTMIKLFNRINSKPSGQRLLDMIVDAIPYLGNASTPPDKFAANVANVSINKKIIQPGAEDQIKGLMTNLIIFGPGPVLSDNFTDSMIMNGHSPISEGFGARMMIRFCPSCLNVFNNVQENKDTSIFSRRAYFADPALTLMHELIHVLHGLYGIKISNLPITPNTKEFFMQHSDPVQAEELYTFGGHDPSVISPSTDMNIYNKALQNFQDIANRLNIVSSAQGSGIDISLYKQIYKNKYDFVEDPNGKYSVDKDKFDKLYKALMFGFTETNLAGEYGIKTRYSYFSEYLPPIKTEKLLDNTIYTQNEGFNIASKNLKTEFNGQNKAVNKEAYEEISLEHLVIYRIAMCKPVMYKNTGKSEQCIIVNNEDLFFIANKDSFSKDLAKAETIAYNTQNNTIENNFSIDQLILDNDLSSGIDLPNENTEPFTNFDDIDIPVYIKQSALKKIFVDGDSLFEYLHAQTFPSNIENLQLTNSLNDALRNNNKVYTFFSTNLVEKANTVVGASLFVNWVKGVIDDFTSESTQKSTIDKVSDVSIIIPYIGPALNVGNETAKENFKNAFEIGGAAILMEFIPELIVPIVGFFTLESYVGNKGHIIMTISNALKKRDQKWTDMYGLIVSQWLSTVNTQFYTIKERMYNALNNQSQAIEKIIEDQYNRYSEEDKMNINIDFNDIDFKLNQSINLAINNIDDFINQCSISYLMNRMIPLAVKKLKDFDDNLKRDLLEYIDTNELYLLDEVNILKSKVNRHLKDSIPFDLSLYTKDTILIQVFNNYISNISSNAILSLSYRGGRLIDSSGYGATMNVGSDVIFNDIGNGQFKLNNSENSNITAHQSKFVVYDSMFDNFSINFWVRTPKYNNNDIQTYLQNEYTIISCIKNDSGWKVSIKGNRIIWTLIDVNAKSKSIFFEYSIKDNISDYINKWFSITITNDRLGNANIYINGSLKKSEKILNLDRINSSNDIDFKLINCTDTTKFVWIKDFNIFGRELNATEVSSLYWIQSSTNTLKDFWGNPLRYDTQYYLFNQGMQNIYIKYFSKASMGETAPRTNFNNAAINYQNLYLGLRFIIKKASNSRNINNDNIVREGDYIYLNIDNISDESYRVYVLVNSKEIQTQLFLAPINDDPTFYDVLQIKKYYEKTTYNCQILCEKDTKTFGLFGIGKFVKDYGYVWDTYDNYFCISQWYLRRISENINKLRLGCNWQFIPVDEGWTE
# B1: hu6G6.1 IgG (antibody, V domains shown)
# VH: QVQLVQSGAEVKKPGASVKLSCKASGFNIKDTYMHWVRQAPGQGLEWIGRIDPENGNTKYDPKFQGRATITAYKSINTAYLELSRLRSDDTAVYYCASGPNYYGTTWFAYWGQGTTVTVSS
# VL: EIVLTQSPSTLSASVGDRVTITCRASHGISNYLAWYQQKPGRAPKLLIYKASTLHIGVPSRFSGSGSGTEFALTISSLQPDDFSTYYCQQYNSYLPHTFGQGTRLEIKR
# B2: hu6G6 variant A3 scFv (scFv)
# scFv: QVQLVQSGAEVKKPGASVKLSCKASGFNIKDTYMHWVRQAPGQGLEWIGRIDPANGNTKYDPKFQGRATITAGTSINTAYLELSRLRSDDTAVYYCASGPNYYGTTWFAYWGQGTTVTVSSVDLKSGGSTSGSGKPGSGEGSSGSARKIVLTQSPSTLSASVGDRVTITCRASHGISNYLAWYQQKPGRAPKLLIYKASTLHIGVPSRFSGSGSGTEFALTISSLQPDDFSTYYCQQYISYLPHTFGQGTRLEIK
# B3: hu6G6 variant A4 scFv (scFv)
# scFv: B2 scFv with A54E, G73Y, T74K, G132D, K148E, I239N
# B4: hu6G6 variant B8.1 scFv (scFv)
# scFv: B2 scFv with K12N, G73Y, I76F, K148E, I239N
# B5: hu6G6 variant A3.1 scFv (scFv)
# scFv: B2 scFv with K148E, I239N
# B6: hu6G6 variant B8 scFv (scFv)
# scFv: B2 scFv with K12N, G73Y, I76F, T115S, K148E, I239N
# B7: Hu6G7.1 scFv (scFv, V domains shown)
# VH: QVQLVQSGAEVKKPGASVKVSCKASDYSFTDYNIYWVRQTPGQGLEWIGYIDPYNGGTSYNQKFKGRATLTVDKSISTAYMELSRLRSDDTAVYYCALYGYDPDYIDYWGQGTTLTVSS
# VL: DIVLTQSPASMAVSPGQRVTITCSASSSVSYLHWFQQKPGQSPKLWIYSTSNLASGVPARFSGSGSGTDYTLTINPMEAEDTATYYCQQRSSYPYTFGQGTKLEIKR
# Experiments:
# [1] = target: T1, active BoNT/G holotoxin
# [2] = target: inactive BoNT/G (BoNT/Gi) (Clostridium botulinum) (UniProt Q60393); experiment: flow cytometry, scFv on yeast
# [3] = target: inactive BoNT/G (BoNT/Gi) (Clostridium botulinum) (UniProt Q60393); experiment: flow cytometry, scFv on yeast; against hu6G6 Wt
# [4] = target: T2, inactive BoNT/G (BoNT/Gi); experiment: flow cytometry, scFv on yeast
Binder,Kd [1] [nM],Kd [2] [nM],Improvement over WT [3] [fold],fold lower affinity than murine 6G7.1 [4] [fold]
B1,0.476,–,–,–
B2,–,5.18,4.5,–
B3,–,3.46,6.8,–
B4,–,5.43,4.3,–
B5,–,6.5,3.5,–
B6,–,3.75,6.2,–
B7,–,–,–,10
